Assay [1] deals with T1, dog CD47 (dog, UniProt A0A8I3PM61 19-310).
T1 construct: also called CD47 on dog RBCs
T1 sequence: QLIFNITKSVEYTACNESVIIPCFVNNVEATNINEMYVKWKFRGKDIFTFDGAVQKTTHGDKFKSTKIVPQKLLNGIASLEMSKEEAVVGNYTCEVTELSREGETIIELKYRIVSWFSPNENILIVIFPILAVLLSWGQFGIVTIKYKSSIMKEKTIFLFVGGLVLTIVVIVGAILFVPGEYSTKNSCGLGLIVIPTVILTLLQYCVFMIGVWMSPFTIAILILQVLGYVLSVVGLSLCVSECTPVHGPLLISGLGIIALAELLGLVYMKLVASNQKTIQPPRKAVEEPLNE
As to the kind of experiment: FACS, dog RBCs, supernatant 10 ng/ml. As to the method:
(§1) RBCs are incubated for 60 minutes on ice with tissue culture supernatants containing the secreted humanized antibodies at a concentration of 10 ng/ml in a solution of phosphate buffered saline, pH 7.2, 2.5 mM EDTA (PBS+E), or with various concentrations of purified antibodies. Cells are then washed with cold PBS+E, and incubated for an additional hour on ice with FITC labeled donkey anti-human antibody (Jackson Immuno Research Labs, West Grove, Pa.; Catalogue #709-096-149) in PBS+E. Cells are then washed with PBS+E, and antibody binding is analyzed using a BD FACSAria Cell Sorter (Becton Dickinson) or a C6 Accuri Flow Cytometer (Becton Dickinson). Antibody binding is quantitated by comparison of mean fluorescence values relative to that of chimeric antibody >VxP037-01LC (SEQ ID NO:7))/>VxP037-01HC (SEQ ID NO:57). The mean fluorescence value for each antibody is divided by the mean fluorescence value for the chimeric antibody.
On the technique in general: A flow cytometer gives signals particle by particle.

Assay [2] concerns the target T2, pig CD47 (pig, UniProt Q9GKE8 19-303).
T2 construct: whole, on cells; also called CD47 on porcine RBCs
T2 sequence (looked up): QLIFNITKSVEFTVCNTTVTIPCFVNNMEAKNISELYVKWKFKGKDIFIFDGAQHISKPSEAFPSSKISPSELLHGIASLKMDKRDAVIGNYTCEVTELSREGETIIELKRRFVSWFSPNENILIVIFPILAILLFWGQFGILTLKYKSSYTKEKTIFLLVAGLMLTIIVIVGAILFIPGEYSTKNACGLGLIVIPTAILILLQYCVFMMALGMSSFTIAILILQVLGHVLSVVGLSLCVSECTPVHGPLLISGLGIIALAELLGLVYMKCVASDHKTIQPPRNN
Description: FACS, pig RBCs, supernatant 10 ng/ml. As to the method:
as §1

For assay [3], the target named is T3, rat CD47 (rat, UniProt P97829 19-303).
T3 construct: whole, on cells; also called CD47 on rat RBCs
T3 sequence (looked up): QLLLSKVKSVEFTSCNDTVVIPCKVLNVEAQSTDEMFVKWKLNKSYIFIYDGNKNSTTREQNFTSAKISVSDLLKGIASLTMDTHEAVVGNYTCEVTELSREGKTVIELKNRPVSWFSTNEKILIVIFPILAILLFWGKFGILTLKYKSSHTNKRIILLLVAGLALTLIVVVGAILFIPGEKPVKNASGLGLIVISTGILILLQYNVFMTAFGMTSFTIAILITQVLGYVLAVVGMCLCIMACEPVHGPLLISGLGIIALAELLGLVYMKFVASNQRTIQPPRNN
Description: FACS, rat RBCs, supernatant 10 ng/ml. As to the method:
as §1

The target of assay [4] is T4, human CD47 (human, UniProt Q08722 19-323).
T4 construct: whole, on cells; also called CD47 on human RBCs; CD47 on OV10 cells
T4 sequence (Q08722 19-323): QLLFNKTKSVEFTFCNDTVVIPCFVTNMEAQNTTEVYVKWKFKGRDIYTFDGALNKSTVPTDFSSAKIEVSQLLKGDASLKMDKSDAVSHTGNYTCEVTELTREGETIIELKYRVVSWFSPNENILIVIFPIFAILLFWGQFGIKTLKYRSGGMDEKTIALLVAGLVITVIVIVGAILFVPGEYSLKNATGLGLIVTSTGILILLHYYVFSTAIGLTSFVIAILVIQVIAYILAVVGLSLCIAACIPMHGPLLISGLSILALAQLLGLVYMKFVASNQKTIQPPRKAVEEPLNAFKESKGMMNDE
As to the kind of experiment: FACS, human RBCs, supernatant 10 ng/ml. As to the method:
as §1

Assay [5] addresses T5, mouse CD47 (mouse, UniProt Q61735 19-303).
T5 construct: whole, on cells; also called CD47 on mouse RBCs; CD47 on 4T1 cells
T5 sequence (looked up): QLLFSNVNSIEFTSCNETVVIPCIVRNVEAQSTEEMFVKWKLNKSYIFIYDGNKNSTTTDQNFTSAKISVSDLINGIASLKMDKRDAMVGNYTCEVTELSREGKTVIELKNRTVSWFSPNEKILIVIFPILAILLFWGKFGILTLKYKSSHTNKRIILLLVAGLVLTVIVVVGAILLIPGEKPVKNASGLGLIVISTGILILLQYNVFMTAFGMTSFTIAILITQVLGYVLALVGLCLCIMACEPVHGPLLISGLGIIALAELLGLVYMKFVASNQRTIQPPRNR
Description: FACS, mouse RBCs, supernatant 10 ng/ml. As to the method:
as §1

B1: Clone 2 (pVxK7b-037-hum02-LC / pVxK7b-037-hum02-HC) (antibody, human IgG1, kappa, V domains shown)
VH: QVQLQESGPGLVKPSQTLSLTCTVSGYTFTNYYVFWVRQARGQRLEWIGDINPVNGDTNFNEKFKNRVTISADKSISTAYLQWSSLKASDTAMYYCARGGYTMDYWGQGTLVTVSS
VL: DVVMTQSPLSLPVTLGQPASISCRSSQSLVHSNGNTYLHWYQQKPGQAPRLLIYKVSYRFSGVPSRFSGSGSGTEFTLTISSLQPDDFATYYCSQNTHVPRTFGQGTKVEIKR
As for B1, the “mean fluorescence relative to chimera” value is 1 in assay [1]; 1.2 in assay [2]; 2.6 in assay [3]; 1 in assay [4]; 1.2 in assay [5].

B2: Clone 6 (pVxK7b-037-hum06-LC / pVxK7b-037-hum06-HC) (antibody, human IgG1, kappa, V domains shown)
VH: QVQLQESGPGLVKPSQTLSLTCTVSGYTFTNYYVFWVRQARGQRLEWIGDINPVNGDTNFNEKFKNRLTISKDTSKNQVVLTMTNMDPVDTATYYCARGGYTMDYWGQGTLVTVSS
VL: DIQMTQSPSSLSASVGDRVTITCRSSQSLVHSNGNTYLHWYLQKPGQSPQLLIYKVSYRFSGIPARFSGSGSGTEFTLTISSLQSEDFAVYYCSQNTHVPRTFGQGTKVEIKR
B2: the “mean fluorescence relative to chimera” value in assay [1] was found to be 1.1; in assay [2] it was 1.1; in assay [3], 2.1; in assay [4], 0.9; in assay [5], 1.2.

B3: Clone 24 (pVxK7b-037-hum24-LC / pVxK7b-037-hum24-HC) (antibody, human IgG1, kappa, V domains shown)
VH: QVQLQESGPGLVKPGATVKISCKVSGYTFTNYYVFWVRQARGQRLEWIGDINPVNGDTNFNEKFKNRVTITADKSTSTAYMELSSLRSEDTAVYYCARGGYTMDYWGQGTLVTVSS
VL: AIQLTQSPSSLSASVGDRVTITCRSSQSLVHSNGNTYLHWYQQKPGQAPRLLIYKVSYRFSGVPSRFSGSGSGTEFTLTISSLQPDDFATYYCSQNTHVPRTFGQGTKVEIKR
notes: also called Cl 24
As for B3, the “mean fluorescence relative to chimera” value in assay [1] worked out at 1; in assay [2] it was 1.1; in assay [3] it was 1.2; in assay [4] it was 0.8; in assay [5], 0.7.

B4: Clone 4 (pVxK7b-037-hum04-LC / pVxK7b-037-hum04-HC) (antibody, human IgG1, kappa, V domains shown)
VH: QVQLQESGPGLVKPSQTLSLTCTVSGYTFTNYYVFWVRQAPGKGLEWVSDINPVNGDTNFNEKFKNRVTISVDTSKNQFSLKLSSVTAADTAVYYCARGGYTMDYWGQGTLVTVSS
VL: DIQMTQSPSSLSASVGDRVTITCRSSQSLVHSNGNTYLHWYLQKPGQSPQLLIYKVSYRFSGIPARFSGSGSGTEFTLTISSLQSEDFAVYYCSQNTHVPRTFGQGTKVEIKR
On to B4, for which the “mean fluorescence relative to chimera” value in assay [1] is 0.6; in assay [2] it was 0.6; in assay [3] it was 1; in assay [4], 0.6; in assay [5], 0.6.

B5: Clone 22 (pVxK7b-037-hum22-LC / pVxK7b-037-hum22-HC) (antibody, human IgG1, kappa, V domains shown)
VH: QVQLQESGPGLVKPSQTLSLTCTVSGYTFTNYYVFWVRQARGQRLEWIGDINPVNGDTNFNEKFKNRLTISKDTSKNQVVLTMTNMDPVDTATYYCARGGYTMDYWGQGTLVTVSS
VL: EIVLTQSPATLSVSPGERATLSCRSSQSLVHSNGNTYLHWYQQKPGQAPRLLIYKVSYRFSGVPSRFSGSGSGTDFTFTISSLEAEDAATYYCSQNTHVPRTFGQGTKVEIKR
Regarding B5, the “mean fluorescence relative to chimera” value in assay [1] was 1; in assay [2], 1.4; in assay [3], 2.8; in assay [4], 1.1; in assay [5] it was 1.2.

B6: Clone 21 (pVxK7b-037-hum21-LC / pVxK7b-037-hum21-HC) (antibody, human IgG1, kappa, V domains shown)
VH: QVQLQESGPGLVKPSQTLSLTCTVSGYTFTNYYVFWVRQARGQRLEWIGDINPVNGDTNFNEKFKNRLTISKDTSKNQVVLTMTNMDPVDTATYYCARGGYTMDYWGQGTLVTVSS
VL: AIQLTQSPSSLSASVGDRVTITCRSSQSLVHSNGNTYLHWYQQKPGQAPRLLIYKVSYRFSGVPDRFSGSGSGTDFTLKISRVEAEDVGVYYCSQNTHVPRTFGQGTKVEIKR
As for B6, the “mean fluorescence relative to chimera” value stood at 1.1 in assay [1]; 1.4 in assay [2]; 2.8 in assay [3]; 1.2 in assay [4]; 1.2 in assay [5].

B7: Clone 23 (pVxK7b-037-hum23-LC / pVxK7b-037-hum23-HC) (antibody, human IgG1, kappa)
light: DIVMTQTPLSLPVTPGEPASISCRSSQSLVHSNGNTYLHWYQQKPGKAPKLLIYKVSYRFSGVPDRFSGSGSGTDFTLKISRVEAEDVGVYYCSQNTHVPRTFGQGTKVEIKRTVAAPSVFIFPPSDEQLKSGTASVVCLLNNFYPREAKVQWKVDNALQSGNSQESVTEQDSKDSTYSLSSTLTLSKADYEKHKVYACEVTHQGLSSPVTKSFNRGEC
heavy: not shown
Take B7: the “mean fluorescence relative to chimera” value turned out to be 1.1 in assay [1]; 1.7 in assay [2]; 3.3 in assay [3]; 1.2 in assay [4]; 1.4 in assay [5].

B8: Clone 5 (pVxK7b-037-hum05-LC / pVxK7b-037-hum05-HC) (antibody, human IgG1, kappa)
light: DIVMTQTPLSLPVTPGEPASISCRSSQSLVHSNGNTYLHWYLQKPGQSPQLLIYKVSYRFSGVPDRFSGSGSGTDFTLKISRVEAEDVGVYYCSQNTHVPRTFGQGTKVEIKRTVAAPSVFIFPPSDEQLKSGTASVVCLLNNFYPREAKVQWKVDNALQSGNSQESVTEQDSKDSTYSLSSTLTLSKADYEKHKVYACEVTHQGLSSPVTKSFNRGEC
heavy: not shown
For the molecule B8, the “mean fluorescence relative to chimera” value came out at 1.1 in assay [1]; 1.2 in assay [2]; 2.2 in assay [3]; 1 in assay [4]; 1 in assay [5].

B9: Clone 9 (pVxK7b-037-hum09-LC / pVxK7b-037-hum09-HC) (antibody, human IgG1, kappa)
light: DVVMTQSPLSLPVTLGQPASISCRSSQSLVHSNGNTYLHWYQQKPGKAPKLLIYKVSYRFSGVPDRFSGSGSGTDFTLKISRVEAEDVGVYYCSQNTHVPRTFGQGTKVEIKRTVAAPSVFIFPPSDEQLKSGTASVVCLLNNFYPREAKVQWKVDNALQSGNSQESVTEQDSKDSTYSLSSTLTLSKADYEKHKVYACEVTHQGLSSPVTKSFNRGEC
heavy: not shown
notes: also called Cl 9
B9: the “mean fluorescence relative to chimera” value turned out to be 1 in assay [1]; 1.6 in assay [2]; 3.7 in assay [3]; 1.2 in assay [4]; 1.4 in assay [5].

B10: Clone 10 (pVxK7b-037-hum10-LC / pVxK7b-037-hum10-HC) (antibody, human IgG1, kappa, V domains shown)
VH: QVQLQESGPGLVKPSQTLSLTCTVSGYTFTNYYVFWVRQARGQRLEWIGDINPVNGDTNFNEKFKNRLTISKDTSKNQVVLTMTNMDPVDTATYYCARGGYTMDYWGQGTLVTVSS
VL: DIVMTQTPLSLPVTPGEPASISCRSSQSLVHSNGNTYLHWYLQKPGQSPQLLIYKVSYRFSGVPDRFSGSGSGTDFTLKISRVEAEDVGVYYCSQNTHVPRTFGQGTKVEIKR
Consider B10, for which the “mean fluorescence relative to chimera” value in assay [1] was found to be 1.1; in assay [2], 1.5; in assay [3], 2.9; in assay [4], 1.1; in assay [5], 1.2.

These data come from patent publication US20180051081A1 (published 2018).
